Measurements from the MegaScale stability set (Tsuboyama et al. 2023).

B1: r11_951_TrROS_Hall (parent)
chain: KKKYVIKVYFEDTGKEVEIEAESKEEALEAAKRLAEELGLKIKKVEIYP

Variants of: B1
Experiment: folding stability dG (cDNA display proteolysis); higher = more stable
Conditions: PBS, room temperature

Variant | folding stability dG
KKKYFIKVYFEDTGKEVEIEAESKEEALEAAKRLAEELGLKIKKVEIYP [V5F] | 4.42 kcal/mol
KKKYTIKVYFEDTGKEVEIEAESKEEALEAAKRLAEELGLKIKKVEIYP [V5T] | 4.47 kcal/mol
KKKYQIKVYFEDTGKEVEIEAESKEEALEAAKRLAEELGLKIKKVEIYP [V5Q] | 4.27 kcal/mol
KKKYPIKVYFEDTGKEVEIEAESKEEALEAAKRLAEELGLKIKKVEIYP [V5P] | 2.38 kcal/mol
KKKYEIKVYFEDTGKEVEIEAESKEEALEAAKRLAEELGLKIKKVEIYP [V5E] | 3.42 kcal/mol
KKKYNIKVYFEDTGKEVEIEAESKEEALEAAKRLAEELGLKIKKVEIYP [V5N] | 4.12 kcal/mol
KKKYLIKVYFEDTGKEVEIEAESKEEALEAAKRLAEELGLKIKKVEIYP [V5L] | 4.13 kcal/mol
KKKYIIKVYFEDTGKEVEIEAESKEEALEAAKRLAEELGLKIKKVEIYP [V5I] | 4.29 kcal/mol
KKKYYIKVYFEDTGKEVEIEAESKEEALEAAKRLAEELGLKIKKVEIYP [V5Y] | 4.37 kcal/mol
KKKYCIKVYFEDTGKEVEIEAESKEEALEAAKRLAEELGLKIKKVEIYP [V5C] | 3.83 kcal/mol
KKKYDIKVYFEDTGKEVEIEAESKEEALEAAKRLAEELGLKIKKVEIYP [V5D] | 3 kcal/mol
KKKYMIKVYFEDTGKEVEIEAESKEEALEAAKRLAEELGLKIKKVEIYP [V5M] | 4.31 kcal/mol
KKKYKIKVYFEDTGKEVEIEAESKEEALEAAKRLAEELGLKIKKVEIYP [V5K] | 4.63 kcal/mol
KKKYSIKVYFEDTGKEVEIEAESKEEALEAAKRLAEELGLKIKKVEIYP [V5S] | 4.3 kcal/mol
KKKYAIKVYFEDTGKEVEIEAESKEEALEAAKRLAEELGLKIKKVEIYP [V5A] | 4.35 kcal/mol
KKKYRIKVYFEDTGKEVEIEAESKEEALEAAKRLAEELGLKIKKVEIYP [V5R] | 4.66 kcal/mol
KKKYGIKVYFEDTGKEVEIEAESKEEALEAAKRLAEELGLKIKKVEIYP [V5G] | 3.95 kcal/mol
KKKYHIKVYFEDTGKEVEIEAESKEEALEAAKRLAEELGLKIKKVEIYP [V5H] | 4.32 kcal/mol
KKKYWIKVYFEDTGKEVEIEAESKEEALEAAKRLAEELGLKIKKVEIYP [V5W] | 4.62 kcal/mol
KKKYVGKVYFEDTGKEVEIEAESKEEALEAAKRLAEELGLKIKKVEIYP [I6G] | 3.82 kcal/mol
KKKYVRKVYFEDTGKEVEIEAESKEEALEAAKRLAEELGLKIKKVEIYP [I6R] | 0.95 kcal/mol
KKKYVQKVYFEDTGKEVEIEAESKEEALEAAKRLAEELGLKIKKVEIYP [I6Q] | 1.59 kcal/mol
KKKYVMKVYFEDTGKEVEIEAESKEEALEAAKRLAEELGLKIKKVEIYP [I6M] | 4.46 kcal/mol
KKKYVTKVYFEDTGKEVEIEAESKEEALEAAKRLAEELGLKIKKVEIYP [I6T] | 3.59 kcal/mol
KKKYVHKVYFEDTGKEVEIEAESKEEALEAAKRLAEELGLKIKKVEIYP [I6H] | 2.82 kcal/mol
KKKYVLKVYFEDTGKEVEIEAESKEEALEAAKRLAEELGLKIKKVEIYP [I6L] | 4.34 kcal/mol
KKKYVVKVYFEDTGKEVEIEAESKEEALEAAKRLAEELGLKIKKVEIYP [I6V] | 4.06 kcal/mol

Variant | folding stability dG
KKKYVKKVYFEDTGKEVEIEAESKEEALEAAKRLAEELGLKIKKVEIYP [I6K] | 0.69 kcal/mol
KKKYVEKVYFEDTGKEVEIEAESKEEALEAAKRLAEELGLKIKKVEIYP [I6E] | 1.26 kcal/mol
KKKYVCKVYFEDTGKEVEIEAESKEEALEAAKRLAEELGLKIKKVEIYP [I6C] | 3.63 kcal/mol
KKKYVNKVYFEDTGKEVEIEAESKEEALEAAKRLAEELGLKIKKVEIYP [I6N] | 1.53 kcal/mol
KKKYVFKVYFEDTGKEVEIEAESKEEALEAAKRLAEELGLKIKKVEIYP [I6F] | 4.55 kcal/mol
KKKYVWKVYFEDTGKEVEIEAESKEEALEAAKRLAEELGLKIKKVEIYP [I6W] | 4.67 kcal/mol
KKKYVPKVYFEDTGKEVEIEAESKEEALEAAKRLAEELGLKIKKVEIYP [I6P] | -0.197 kcal/mol
KKKYVAKVYFEDTGKEVEIEAESKEEALEAAKRLAEELGLKIKKVEIYP [I6A] | 4.12 kcal/mol
KKKYVSKVYFEDTGKEVEIEAESKEEALEAAKRLAEELGLKIKKVEIYP [I6S] | 3.42 kcal/mol
KKKYVDKVYFEDTGKEVEIEAESKEEALEAAKRLAEELGLKIKKVEIYP [I6D] | 0.044 kcal/mol
KKKYVYKVYFEDTGKEVEIEAESKEEALEAAKRLAEELGLKIKKVEIYP [I6Y] | 4.79 kcal/mol
KKKYVIGVYFEDTGKEVEIEAESKEEALEAAKRLAEELGLKIKKVEIYP [K7G] | 3.32 kcal/mol
KKKYVILVYFEDTGKEVEIEAESKEEALEAAKRLAEELGLKIKKVEIYP [K7L] | 4.09 kcal/mol
KKKYVICVYFEDTGKEVEIEAESKEEALEAAKRLAEELGLKIKKVEIYP [K7C] | 3.91 kcal/mol
KKKYVIWVYFEDTGKEVEIEAESKEEALEAAKRLAEELGLKIKKVEIYP [K7W] | 4.45 kcal/mol
KKKYVIEVYFEDTGKEVEIEAESKEEALEAAKRLAEELGLKIKKVEIYP [K7E] | 3.12 kcal/mol
KKKYVIMVYFEDTGKEVEIEAESKEEALEAAKRLAEELGLKIKKVEIYP [K7M] | 4.1 kcal/mol
KKKYVIYVYFEDTGKEVEIEAESKEEALEAAKRLAEELGLKIKKVEIYP [K7Y] | 4.13 kcal/mol
KKKYVISVYFEDTGKEVEIEAESKEEALEAAKRLAEELGLKIKKVEIYP [K7S] | 3.73 kcal/mol
KKKYVITVYFEDTGKEVEIEAESKEEALEAAKRLAEELGLKIKKVEIYP [K7T] | 4.07 kcal/mol
KKKYVIPVYFEDTGKEVEIEAESKEEALEAAKRLAEELGLKIKKVEIYP [K7P] | 1.45 kcal/mol
KKKYVIRVYFEDTGKEVEIEAESKEEALEAAKRLAEELGLKIKKVEIYP [K7R] | 4.64 kcal/mol
KKKYVINVYFEDTGKEVEIEAESKEEALEAAKRLAEELGLKIKKVEIYP [K7N] | 3.9 kcal/mol
KKKYVIFVYFEDTGKEVEIEAESKEEALEAAKRLAEELGLKIKKVEIYP [K7F] | 4.21 kcal/mol
KKKYVIDVYFEDTGKEVEIEAESKEEALEAAKRLAEELGLKIKKVEIYP [K7D] | 2.75 kcal/mol
KKKYVIIVYFEDTGKEVEIEAESKEEALEAAKRLAEELGLKIKKVEIYP [K7I] | 4.11 kcal/mol
